Target: microtubule polymers
Conditions: domain or fragment; chains chain; Polymerised alpha/beta-tubulin heterodimers (one repeat given). Source is not printed (assay 'as previously described' in a cited paper); commercial mammalian brain tubulin is assumed, porcine taken as likeliest (bovine possible). Brain tubulin is an isotype mixture with heterogeneous PTMs (acetyl-Lys40, detyrosination, polyglutamylation); TUBA1B and the pig beta chain are representatives only. GT; modification not given

B1: Smc5 hinge domain (residues 215–885), Q08204 215-885 (protein)
chain: LRELQGNEQSLQKDLDFKKAKIVHLRQESDKLRKSVESLRDFQNKKGEIELHSQLLPYVKVKDHKEKLNIYKEEYERAKANLRAILKDKKPFANTKKTLENQVEELTEKCSLKTDEFLKAKEKINEIFEKLNTIRDEVIKKKNQNEYYRGRTKKLQATIISTKEDFLRSQEILAQTHLPEKSVFEDIDIKRKEIINKEGEIRDLISEIDAKANAINHEMRSIQRQAESKTKSLTTTDKIGILNQDQDLKEVRDAVLMVREHPEMKDKILEPPIMTVSAINAQFAAYLAQCVDYNTSKALTVVDSDSYKLFANPILDKFKVNLRELSSADTTPPVPAETVRDLGFEGYLSDFITGDKRVMKMLCQTSKIHTIPVSRRELTPAQIKKLITPRPNGKILFKRIIHGNRLVDIKQSAYGSKQVFPTDVSIKQTNFYQGSIMSNEQKIRIENEIINLKNEYNDRKSTLDALSNQKSGYRHELSELASKNDDINREAHQLNEIRKKYTMRKSTIETLREKLDQLKREARKDVSQKIKDIDDQIQQLLLKQRHLLSKMASSMKSLKNCQKELISTQILQFEAQNMDVSMNDVIGFFNEREADLKSQYEDKKKFVKEMRDTPEFQSWMREIRSYDQDTKEKLNKVAEKYEEEGNFNLSFVQDVLDKLESEIAMVNHDES
  Kd: 690 nM
